Data reported in patent publication US9688764B2, “Methods of treating breast cancer by administering anti-human prolactin receptor (PRLR) antibodies” (REGENERON PHARMACEUTICALS, INC., priority 2013, dated 2017).

B1: H1H6792P: anti-PRLR antibody, human IgG1 Fc; HCVR/LCVR SEQ ID NOs 130/138 (antibody, V domains shown)
VH: EVQLVESGGGLVQPGRSLRLSCAASGFTLDDHAVHWVRQAPGKGLEWVSGISWNSVYIDYADSVKGRFTIFRDNAKNSLYLQMNSLRAEDTAFYYCARDIEGARDYWGQGTLVTVSS
VL: DIQMTQSPSSLSASVGDRVTITCRASQGIRNDLGWYQQKPGKAPKRLIYAASSLQSGVPSRFSGSGYGTEFTLTISSLQPEDFAPYYCLQHNSYPLTFGGGTKVEIK
modifications: human IgG1 Fc
B2: H1H6785P: anti-PRLR antibody, human IgG1 Fc; HCVR/LCVR SEQ ID NOs 98/106 (antibody, V domains shown)
VH: EVQLVESGGGLVQPGGSLRLSCAASGFTFSSYEMNWVRQAPGKGLEWISYISSRGGTIYYADSIKGRFTIYRDNARNSLYLQMNSLRAEDTAIYYCARLSGVDIFDIWGQGTMVTVSS
VL: DIQMTQSPSSLSASVGDRVTITCRASQGISNYLAWYQQKPGKVPKLLIYFASTLQSGVPSRFSGGGSGTDFTLTISSLQPEDVATYYCQRYNSAPLTFGGGTKVEIK
modifications: human IgG1 Fc
B3: H1H6790P: anti-PRLR antibody, human IgG1 Fc; HCVR/LCVR SEQ ID NOs 114/122 (antibody, V domains shown)
VH: EVQLVESGGGLVQPGGSLRLSCAASGFTFSSYAMTWVRQAPGKGLEWVSAITGSVGNTYYADSVKGRFTISRDNSKNTLYLQMNSLGAEDTAEYYCAKGAGMTTNWYLDLWGRGTLVTVSS
VL: DIVMTQSPDSLAVSLGARATINCKSSQSVLYSSNNQNYLTWYQQKPGQPPKLLIKWASTRESGVPDRFSGSGSGTDFTLTISSLQAEDVAVYYCQQYASSPYTFGQGTKLEIK
modifications: human IgG1 Fc
B4: H1H6797P: anti-PRLR antibody, human IgG1 Fc; HCVR/LCVR SEQ ID NOs 178/186 (antibody, V domains shown)
VH: EVQLVESGGGLVQPGGSLRLSCIVSGFTFSGSWMSWVRQLPGKGLEWVANIKEDGSDSYYVDSVEGRFTISRDNAKSSLYLQMNSLRVDDTAVYFCARARTVPLHYWGQGTLVTVSS
VL: DIQMTQSPSTLSASVGDRVTITCRASQSINIWLAWYQQKPGKAPKLLIYRASYLESGVPSSFAGGGSGTEFTLTISSLQPDDFGTYYCQHYNSYPFTFGQGTKLEIK
modifications: human IgG1 Fc
B5: H1H6795P: anti-PRLR antibody, human IgG1 Fc; HCVR/LCVR SEQ ID NOs 162/170 (antibody, V domains shown)
VH: QVQLVQSGAEVKKPGASVKVSCKASGYTFGTSGITWVRQAPGQGLEWMGWSSAYNGKTDYAQKFQDRVTMTTDTSTTTGYMEMRSLTSDDTAVYYCTTVVRRPFDFWGQGTLVTVSS
VL: DIQMTQSPSSLSASVGDRVTITCRASQDINNFLAWFQQKPGKAPKSLIYAASSLQSGVPSKFSGGGSGTDFALTISSLQPEDFATYYCQQYSSYPITFGQGTRLEIK
modifications: human IgG1 Fc
B6: H1H6793P: anti-PRLR antibody, human IgG1 Fc; HCVR/LCVR SEQ ID NOs 146/154 (antibody, V domains shown)
VH: EVQLVESGGGLVQPGGSLRLSCAASGFSFSIYAMSWFRQAPGKGLEWVSAINGRGDGTHYADSVKGRFTISRDNSKTTLYLQMSSLRAEDTAVYYCAKPVMSTNGFDIWGQGTMVTVSS
VL: DIQMTQSPSTLSASVGDRVTITCRASQSISSWLAWYQLKPGKAPKLLIYKASNLESGVPSRFSGSGSGTEFTLTISSLQPDDFATYYCQQYNIYWTFGQGTKVEIK
modifications: human IgG1 Fc

System: HEK293/hPRLR/STAT5-Luc cells (human PRLR)
Experiment: STAT5-Luc luciferase reporter assay, blocking of PRL-mediated receptor activation
Type: cell-based
Conditions: 5 nM constant PRL, 6 hr at 37° C.
Source text: The ability of anti-PRLR antibodies to block prolactin (PRL)-mediated receptor activation was examined in a luciferase-based reporter assay. The endocrine hormone PRL binds to the extracellular domain of its cognate receptor PRLR, triggering rapid homodimerization and activating several downstream signaling cascades.
In this example, an engineered cell line was used to determine the ability of anti-PRLR antibodies to block ligand activation of the PRLR receptor. Briefly, HEK293/hPRLR/STAT5-Luc cell lines with stable incorporation of a human PRLR expression cassette and the STAT5-dependent luciferase reporter were generated via sequential rounds of Lipofectamine® 2000-mediated transfection (LifeTechnologies, Carlsbad, Calif.). Cells were selected for at least two weeks in the presence of 500 μg/mL G418 (hPRLR) and 100 μg/mL hygromycin B (STAT5-Luc). The STAT5-Luc assay utilized 2×10^5 HEK293/hPRLR/STAT5-Luc cells seeded in complete growth medium on PDL-coated 96 well plates grown overnight at 37° C., 5% CO2. To generate antibody inhibition curves, cells were incubated (6 hr at 37° C.) with serially diluted anti-human PRLR antibodies (100 nM to 24 pM) in the presence of 5 nM constant PRL before recording signal. PRL dose response curves were generated by the addition of serially diluted PRL (100 nM to 24 pM) to cells and recording signal after a 6 hr (37° C.) incubation in the absence of antibodies. The ability of the antibodies to activate PRLR in the absence of ligand was also assessed.
Luciferase activity was measured with ONE-GLO™ reagent (Promega, Madison, Wis.). Relative light units (RLUs) were measured on a Victor luminometer (Perkin Elmer, Shelton, Conn.). EC50/IC50 values were determined from a four-parameter logistic equation over an 8-point response curve using GraphPad Prism. Percent blocking and percent activation are reported for the highest antibody dose.

| Molecule | IC50 [pM] |
| --- | --- |
| B1 | 570 |
| B2 | 345 |
| B3 | 206 |

Same assay, conditions: 100 nM antibody, 5 nM PRL

| Molecule | Percent Blocking at 100 nM Antibody [%] |
| --- | --- |
| B1 | 100 |
| B4 | 0 |
| B5 | 0 |
| B2 | 100 |
| B3 | 100 |
| B6 | 65 |

Target: T1, HEK293/mPRLR (Mus musculus, UniProt Q08501)
T1 construct: HA; expressed in transfected cells; host or cells: HEK293
T1 sequence (Q08501 20-608): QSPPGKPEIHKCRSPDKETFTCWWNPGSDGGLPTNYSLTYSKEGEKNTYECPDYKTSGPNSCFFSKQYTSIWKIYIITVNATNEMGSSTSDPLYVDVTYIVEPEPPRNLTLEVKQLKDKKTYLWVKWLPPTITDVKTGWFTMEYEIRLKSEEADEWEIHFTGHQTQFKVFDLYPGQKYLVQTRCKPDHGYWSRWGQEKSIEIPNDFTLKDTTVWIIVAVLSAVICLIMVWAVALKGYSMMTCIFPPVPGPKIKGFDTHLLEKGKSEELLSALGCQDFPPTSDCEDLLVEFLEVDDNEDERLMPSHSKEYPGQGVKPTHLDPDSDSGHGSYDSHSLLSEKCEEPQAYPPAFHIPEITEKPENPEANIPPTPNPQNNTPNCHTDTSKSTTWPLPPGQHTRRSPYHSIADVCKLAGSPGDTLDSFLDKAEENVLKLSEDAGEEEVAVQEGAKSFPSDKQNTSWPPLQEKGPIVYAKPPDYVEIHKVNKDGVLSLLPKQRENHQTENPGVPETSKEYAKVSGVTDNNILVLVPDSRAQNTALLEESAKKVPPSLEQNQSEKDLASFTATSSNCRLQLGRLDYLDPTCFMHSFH
Experiment: FACS cell surface binding
Conditions: not given
Description: (§1) The ability of anti-PRLR antibodies to selectively bind PRLR expressing cell lines was next determined. Human, monkey macaca fascicularis, and mouse PRLR constructs with an HA tag were stably introduced into HEK293 cells via Lipofectamine 2000-mediated transfection methodology. Transfectants (HEK293/hPRLR, HEK293/mfPRLR and HEK293/mPRLR) were selected for at least 2 weeks in complete growth media plus G418.
(§2) Cell surface expression of PRLR on 293/hPRLR cells was assessed via FACS analysis. Briefly, 1×10^5 cells were incubated with 10 μg/ml of Control antibody I, or an isotype control for 30 min on ice in antibody dilution buffer. Following two washes with antibody dilution buffer, cells were incubated with 10 μg/ml of PE conjugated anti-human secondary antibodies for 30 min on ice. Following two additional washes, samples were run on a Hypercyt® cytometer and analyzed in FORECYT™ (IntelliCyt, Albuquerque, N. Mex.). The mean fluorescence intensities (MFI) were expressed as fold change above isotype control levels (background). FACS binding confirmed that Control I selectively bound to 293/hPRLR expressing cells with MFIs that were 30 fold above background (isotype ctrl) levels and less than 2 fold binding on parental cells.
(§3) Next, the anti-PRLR antibodies of the present invention were tested via FACS for selective binding to the engineered overexpressing PRLR HEK293 cell lines, as well as to non-expressing HEK293 cells and a native PRLR expressing cell line (T47D).

| Molecule | FACS Cell Binding (Fold Above Background) |
| --- | --- |
| B1 | 3 |
| B4 | 2 |
| B5 | 1 |
| B2 | 2 |
| B3 | 1 |
| B6 | 2 |

Target: T2, T47D (native PRLR expressing cell line) (Homo sapiens, UniProt P16471)
T2 construct: a native PRLR expressing cell line (T47D); endogenous in cells; host or cells: T47D
T2 sequence (P16471 25-622): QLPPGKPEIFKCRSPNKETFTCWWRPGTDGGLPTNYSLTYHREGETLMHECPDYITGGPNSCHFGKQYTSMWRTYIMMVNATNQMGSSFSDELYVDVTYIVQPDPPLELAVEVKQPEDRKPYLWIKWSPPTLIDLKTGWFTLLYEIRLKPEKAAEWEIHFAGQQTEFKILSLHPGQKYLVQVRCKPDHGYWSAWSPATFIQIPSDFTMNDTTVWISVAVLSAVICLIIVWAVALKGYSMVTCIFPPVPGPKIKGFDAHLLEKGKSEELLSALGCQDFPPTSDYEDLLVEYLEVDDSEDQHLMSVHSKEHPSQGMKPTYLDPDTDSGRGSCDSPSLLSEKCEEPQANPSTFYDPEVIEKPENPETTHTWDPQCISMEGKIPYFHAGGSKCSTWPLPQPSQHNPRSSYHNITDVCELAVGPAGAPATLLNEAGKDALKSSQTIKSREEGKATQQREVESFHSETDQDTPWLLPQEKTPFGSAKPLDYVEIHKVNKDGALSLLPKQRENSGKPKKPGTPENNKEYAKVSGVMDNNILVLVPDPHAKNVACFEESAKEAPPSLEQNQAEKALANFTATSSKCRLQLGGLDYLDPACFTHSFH
Experiment: FACS cell surface binding
Conditions: not given
Description: as §1, §2, §3

| Molecule | FACS Cell Binding (Fold Above Background) |
| --- | --- |
| B1 | 37 |
| B4 | 38 |
| B5 | 34 |
| B2 | 40 |
| B3 | 34 |
| B6 | 43 |

System: HEK293 (non-expressing parental cells)
Experiment: FACS cell surface binding
Conditions: not given
Description: as §1, §2, §3

| Molecule | FACS Cell Binding (Fold Above Background) |
| --- | --- |
| B1 | 1 |
| B4 | 1 |
| B5 | 1 |
| B2 | 1 |
| B3 | 1 |
| B6 | 2 |

Target: T3, HEK293/hPRLR (Homo sapiens, UniProt P16471)
T3 construct: HA; expressed in transfected cells; host or cells: HEK293
T3 sequence (P16471 25-622): T2 sequence (P16471 25-622)
Experiment: FACS cell surface binding
Conditions: not given
Description: as §1, §2, §3

| Molecule | FACS Cell Binding (Fold Above Background) |
| --- | --- |
| B1 | 37 |
| B4 | 1 |
| B5 | 1 |
| B2 | 37 |
| B3 | 37 |
| B6 | 2 |
